What was measured:
Experiment in all cases: GST pull-down, anti-Smad7 immunoblot
[1] = target: T1, GST-β-catenin aa575–683 (Mus musculus (Mouse), UniProt Q02248)
T1 chain: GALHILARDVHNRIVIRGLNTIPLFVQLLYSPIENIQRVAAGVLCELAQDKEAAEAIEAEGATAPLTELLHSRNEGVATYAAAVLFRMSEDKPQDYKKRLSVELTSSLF

[2] = target: T2, GST-β-catenin aa575–696 (Mus musculus (Mouse), UniProt Q02248)
T2 chain: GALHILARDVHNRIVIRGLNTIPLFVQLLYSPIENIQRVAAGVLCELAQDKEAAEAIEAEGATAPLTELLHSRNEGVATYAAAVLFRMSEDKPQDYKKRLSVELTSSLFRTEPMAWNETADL

[3] = target: T3, GST-β-catenin aa422–683 (Mus musculus (Mouse), UniProt Q02248)
T3 chain: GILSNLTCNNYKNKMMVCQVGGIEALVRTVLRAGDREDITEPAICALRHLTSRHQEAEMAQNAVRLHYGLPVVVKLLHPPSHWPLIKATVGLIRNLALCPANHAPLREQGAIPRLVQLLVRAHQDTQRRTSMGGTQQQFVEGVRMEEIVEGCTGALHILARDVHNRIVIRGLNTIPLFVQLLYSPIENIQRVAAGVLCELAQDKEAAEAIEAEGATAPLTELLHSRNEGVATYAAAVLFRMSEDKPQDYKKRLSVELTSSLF

[4] = target: T4, GST-β-catenin aa1–106 (Mus musculus (Mouse), UniProt Q02248)
T4 chain: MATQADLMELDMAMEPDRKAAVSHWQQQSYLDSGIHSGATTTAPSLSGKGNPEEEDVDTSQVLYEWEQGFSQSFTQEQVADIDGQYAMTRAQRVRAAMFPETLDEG

[5] = target: T5, GST-β-catenin aa1–574 (Mus musculus (Mouse), UniProt Q02248)
T5 chain: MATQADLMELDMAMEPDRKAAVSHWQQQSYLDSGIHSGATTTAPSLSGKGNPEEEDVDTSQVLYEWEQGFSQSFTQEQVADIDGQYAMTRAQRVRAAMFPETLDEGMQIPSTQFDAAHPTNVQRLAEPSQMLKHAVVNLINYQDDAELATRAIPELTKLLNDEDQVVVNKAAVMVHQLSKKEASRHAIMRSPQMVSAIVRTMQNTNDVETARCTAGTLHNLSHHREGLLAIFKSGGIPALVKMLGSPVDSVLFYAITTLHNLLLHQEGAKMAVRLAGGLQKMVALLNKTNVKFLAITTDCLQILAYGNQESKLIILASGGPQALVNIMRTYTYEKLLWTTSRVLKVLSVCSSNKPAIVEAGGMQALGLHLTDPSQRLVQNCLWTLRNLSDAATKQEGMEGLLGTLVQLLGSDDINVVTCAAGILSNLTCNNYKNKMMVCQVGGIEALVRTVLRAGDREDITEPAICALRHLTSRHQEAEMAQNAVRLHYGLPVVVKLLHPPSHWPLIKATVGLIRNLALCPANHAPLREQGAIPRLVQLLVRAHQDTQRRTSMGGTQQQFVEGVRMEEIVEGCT

[6] = target: T6, GST-β-catenin aa120–683 (Mus musculus (Mouse), UniProt Q02248)
T6 chain: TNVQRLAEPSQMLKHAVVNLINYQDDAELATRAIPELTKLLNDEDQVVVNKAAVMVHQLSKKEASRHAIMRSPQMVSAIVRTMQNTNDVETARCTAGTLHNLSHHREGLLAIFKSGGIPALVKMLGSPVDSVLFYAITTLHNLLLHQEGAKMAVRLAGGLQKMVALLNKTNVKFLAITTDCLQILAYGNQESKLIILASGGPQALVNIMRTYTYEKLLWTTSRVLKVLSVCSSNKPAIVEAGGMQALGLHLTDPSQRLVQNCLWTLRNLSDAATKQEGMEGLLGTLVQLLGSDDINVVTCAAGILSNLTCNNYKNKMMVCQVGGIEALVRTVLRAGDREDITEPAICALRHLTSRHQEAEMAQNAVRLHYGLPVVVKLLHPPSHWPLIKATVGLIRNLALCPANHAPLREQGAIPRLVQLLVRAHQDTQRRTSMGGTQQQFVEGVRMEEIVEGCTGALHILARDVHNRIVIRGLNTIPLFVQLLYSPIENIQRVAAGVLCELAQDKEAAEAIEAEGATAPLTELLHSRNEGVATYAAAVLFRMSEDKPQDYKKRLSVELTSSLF

binding result [1]: binds
binding result [2]: binds
binding result [3]: binds
binding result [4]: no binding
binding result [5]: no binding
binding result [6]: binds
B1: Smad7 (GST tag removed by thrombin) (protein)
chain: MFRTKRSALVRRLWRSRAPGGEDEEEGVGGGGGGGELRGEGATDGRAYGAGGGGAGRAGCCLGKAVRGAKGHHHPHPPTSGAGAAGGAEADLKALTHSVLKKLKERQLELLLQAVESRGGTRTACLLLPGRLDCRLGPGAPASAQPAQPPSSYSLPLLLCKVFRWPDLRHSSEVKRLCCCESYGKINPELVCCNPHHLSRLCELESPPPPYSRYPMDFLKPTAGCPDAVPSSAETGGTNYLAPGGLSDSQLLLEPGDRSHWCVVAYWEEKTRVGRLYCVQEPSLDIFYDLPQGNGFCLGQLNSDNKSQLVQKVRSKIGCGIQLTREVDGVWVYNRSSYPIFIKSATLDNPDSRTLLVHKVFPGFSIKAFDYEKAYSLQRPNDHEFMQQPWTGFTVQISFVKGWGQCYTRQFISSCPCWLEVIFNSR

— PMC6522533 (2019)
